Results taken from paper PMC4574524.

Target: PFD1235w DBLβ3_D4, wild type (P. falciparum 3D7)
Assay: SPR

For ICAM-1_D1-D2 (domain or fragment), the Kd was 7.9 nM and the koff was 0.00167 s⁻¹.
